Source: patent publication US20240279281A1, “Peptide Inhibitors of Interleukin-23 Receptor” (Janssen Pharmaceutica NV, priority 2023, published 2024)
Starred links: 1 amine or outer side, 2 acyl side, 3 side chain; linkers in the order of their positions; H or OH if unused. Positions of bridges follow the written chain, without caps; N, C: chain ends. Non-standard residues stand in square brackets, D forms with d. 2Nal6(Ph4(NMorph)) = 2-amino-3-(6-(4-morpholinophenyl)naphthalen-2-yl)propanoic acid, O=C([C@H](Cc1ccc2cc(-c3ccc(N4CCOCC4)cc3)ccc2c1)N[*:1])[*:2]; TMAPF = 5-(4-(2-amino-2-carboxyethyl)phenoxy)-N,N,N-trimethylpentan-1-aminium, C[N+](C)(C)CCCCCOc1ccc(C[C@H](N[*:1])C(=O)[*:2])cc1; 6Br2Nal = 2-amino-3-(6-bromonaphthalen-2-yl)propanoic acid, O=C([C@H](Cc1ccc2cc(Br)ccc2c1)N[*:1])[*:2]; 2Nal(6-OH) = N[C@@H](Cc1ccc2cc(O)ccc2c1)C(=O)O; Trp(7-Me) = Cc1cccc2c(C[C@H](N)C(=O)O)c[nH]c12; AEF = NCCOc1ccc(C[C@H](N)C(=O)O)cc1; 3Pal = N[C@@H](Cc1cccnc1)C(=O)O; Pen = CC(C)(S)[C@H](N)C(=O)O; Thp = NC1(C(=O)O)CCOCC1; Sar = CNCC(=O)O

T1: interleukin-23 receptor (IL-23R) (UniProt Q5VWK5 24-629, limits assumed)
T1 sequence (looked up): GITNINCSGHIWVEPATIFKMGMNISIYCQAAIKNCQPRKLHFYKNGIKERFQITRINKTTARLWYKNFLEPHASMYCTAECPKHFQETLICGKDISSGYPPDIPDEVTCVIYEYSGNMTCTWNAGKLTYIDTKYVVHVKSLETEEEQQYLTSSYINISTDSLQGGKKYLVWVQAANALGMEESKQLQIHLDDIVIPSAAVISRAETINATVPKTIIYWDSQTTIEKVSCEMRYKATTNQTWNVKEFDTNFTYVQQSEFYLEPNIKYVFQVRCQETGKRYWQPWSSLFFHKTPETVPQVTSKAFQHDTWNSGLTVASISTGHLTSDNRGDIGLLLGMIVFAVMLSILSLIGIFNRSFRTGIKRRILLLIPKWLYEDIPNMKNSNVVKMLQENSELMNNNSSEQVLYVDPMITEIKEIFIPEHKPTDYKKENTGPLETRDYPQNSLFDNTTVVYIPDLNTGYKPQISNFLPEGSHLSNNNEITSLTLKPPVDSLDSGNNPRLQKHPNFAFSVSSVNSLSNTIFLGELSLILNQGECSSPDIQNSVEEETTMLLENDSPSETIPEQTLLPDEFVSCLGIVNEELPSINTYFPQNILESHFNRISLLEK


Target: T1, interleukin-23 receptor (IL-23R)
Test: cell-based or functional assay

Binder	IL23R Reporter Assay IC50
Ac-[Pen]NT[Trp(7-Me)]K(Ac)[Pen][AEF][2Nal(6-OH)][Thp]EN[3Pal][Sar]-NH2 (disulfide 1-6 (inferred)) [SEQ ID NO: 428]	< 10 nM
Ac-[dR][Pen]NT[Trp(7-Me)]K(Ac)[Pen][AEF][2Nal6(Ph4(NMorph))][Thp]EN[Thp]-NH2 (disulfide 2-7 (inferred)) [SEQ ID NO: 432]	≥ 100 nM
Ac-[dR][Pen]NT[Trp(7-Me)]K(Ac)[Pen][AEF][2Nal(6-OH)][Thp]EN[3Pal][Sar]-NH2 (disulfide 2-7 (inferred)) [SEQ ID NO: 442]	< 10 nM
Ac-[dR][Pen]NT[Trp(7-Me)]K(Ac)[Pen][AEF][6Br2Nal][Thp]EN[Thp]-NH2 (disulfide 2-7 (inferred)) [SEQ ID NO: 444]	≥ 100 nM
Ac-[dR][Pen]NT[Trp(7-Me)]K(Ac)[Pen][TMAPF][2Nal(6-OH)][Thp]EN[3Pal][Sar]-NH2 (disulfide 2-7 (inferred)) [SEQ ID NO: 59]	< 10 nM
